Experimental data as given in publication PMC3045100, “Cell-Penetrating Penta-Peptides (CPP5s): Measurement of Cell Entry and Protein-Transduction Activity” (Pharmaceuticals, 2010).

System: Tex-loxP-EG cells
Test: Protein transduction: delivery of Cre recombinase read out by GFP expression
Format: cell-based, mouse
Settings: 5 or 10 µM protein, 3 h, GFP measured 48 h after, FACS, three independent experiments
Experimental: To determine the protein-transduction activity of VPTLK and KLPVM, these peptides were added to the N-terminus of Cre DNA recombinase and the resulting CPP5-Cre fusion proteins were added separately to the culture medium of Tex-loxP-EG cells, which are engineered to express GFP through Cre-dependent excision of a chromosomal lox P site. This method was developed by S. Dowdy’s group to determine the protein-transduction activity of TAT peptide.
First, cells were cultured for 3 h in serum-free medium in the presence of 5 or 10 µM Cre, TAT-Cre, KLPVM-Cre, or VPTLK-Cre. GFP expression was measured 48 h after the incubation with the CPP-Cre proteins. […]
Figure 5 Protein-Transduction activity (PTDs) of VPTLK and KLPVM determined by the delivery of Cre recombinase into cells. a. […] The delivery of Cre into Tex-lox P-EG cells was evaluated by GFP expression as previously reported. GFP expression was analyzed 48 h after the incubation of cells with Cre proteins. b and c. […] Mean GFP fluorescence intensity of Tex-loxP-EG cells incubated with 5 or 10 μM Cre recombinant proteins under serum-free conditions. […]
Tex lox P EG cells were established from thymoma cells of p53-deficient mice, which were genetically engineered to have a lox P site flanking the EGFP gene. […] Expression of GFP was analyzed by fluorescence microscopy and by FACS [11].

B1: Cre: His-tagged recombinant Cre DNA recombinase without TAT or CPP5s (protein, UniProt P06956 1-343, looked up)
Recombinase cre: MSNLLTVHQNLPALPVDATSDEVRKNLMDMFRDRQAFSEHTWKMLLSVCRSWAAWCKLNNRKWFPAEPEDVRDYLLYLQARGLAVKTIQQHLGQLNMLHRRSGLPRPSDSNAVSLVMRRIRKENVDAGERAKQALAFERTDFDQVRSLMENSDRCQDIRNLAFLGIAYNTLLRIAEIARIRVKDISRTDGGRMLIHIGRTKTLVSTAGVEKALSLGVTKLVERWISVSGVADDPNNYLFCRVRKNGVAAPSATSQLSTRALEGIFEATHRLIYGAKDDSGQRYLAWSGHSARVGAARDMARAGVSIPEIMQAGGWTNVNIVMNYIRNLDSETGAMVRLLEDGD
modifications: His tag
notes: His-tagged recombinant Cre DNA recombinase without TAT or CPP5s
B1 was tested, and the “GFP expression induced by Cre protein, serum-free medium” value was “did not”.
